Data taken from patent US12247072 (ASHER BIOTHERAPEUTICS, dated 2025).

B1: xhCD8.1-hIL21 v2.7 (other)
VH: QVQLVQSGAEVKKPGSSVKVSCKASGGTFSSYAISWVRQAPGQGLEWMGGIIPGYATANYAQKFQGRVTITADESTSTAYMELSSLRSEDTAVYYCARDAAGIRLFADWGQGTLVTVSS
VL: DIQMTQSPSSLSASVGDRVTITCRASQSIYGALNWYQQKPGKAPKLLIYGASNLQSGVPSRFSGSGSGTDFTLTISSLQPEDFATYYCQSTYTAPWTFGGGTKVEIK
chain: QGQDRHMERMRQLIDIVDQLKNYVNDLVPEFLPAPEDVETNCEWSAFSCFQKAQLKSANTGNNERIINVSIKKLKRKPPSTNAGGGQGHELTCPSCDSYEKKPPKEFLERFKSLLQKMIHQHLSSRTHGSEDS
notes: Human IgG1/kappa, knob-into-hole, L234A/L235A/G237A
B2: xhCD8.1-hIL21 v2.9 (other)
VH: QVQLVQSGAEVKKPGSSVKVSCKASGGTFSSYAISWVRQAPGQGLEWMGGIIPGYATANYAQKFQGRVTITADESTSTAYMELSSLRSEDTAVYYCARDAAGIRLFADWGQGTLVTVSS
VL: DIQMTQSPSSLSASVGDRVTITCRASQSIYGALNWYQQKPGKAPKLLIYGASNLQSGVPSRFSGSGSGTDFTLTISSLQPEDFATYYCQSTYTAPWTFGGGTKVEIK
chain: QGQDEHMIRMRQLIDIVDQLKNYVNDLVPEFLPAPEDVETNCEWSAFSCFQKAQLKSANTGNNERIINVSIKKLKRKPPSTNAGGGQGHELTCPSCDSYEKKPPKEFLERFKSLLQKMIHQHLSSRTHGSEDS
notes: as for B1
B3: xhCD8.1-hIL21 v2.20 (other)
VH: QVQLVQSGAEVKKPGSSVKVSCKASGGTFSSYAISWVRQAPGQGLEWMGGIIPGYATANYAQKFQGRVTITADESTSTAYMELSSLRSEDTAVYYCARDAAGIRLFADWGQGTLVTVSS
VL: DIQMTQSPSSLSASVGDRVTITCRASQSIYGALNWYQQKPGKAPKLLIYGASNLQSGVPSRFSGSGSGTDFTLTISSLQPEDFATYYCQSTYTAPWTFGGGTKVEIK
chain: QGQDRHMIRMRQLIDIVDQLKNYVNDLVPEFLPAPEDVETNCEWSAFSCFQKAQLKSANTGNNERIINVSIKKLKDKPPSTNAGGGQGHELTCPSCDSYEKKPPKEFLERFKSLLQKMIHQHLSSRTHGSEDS
notes: as for B1
B4: xhCD8.1-hIL21 v2.28 (other)
VH: QVQLVQSGAEVKKPGSSVKVSCKASGGTFSSYAISWVRQAPGQGLEWMGGIIPGYATANYAQKFQGRVTITADESTSTAYMELSSLRSEDTAVYYCARDAAGIRLFADWGQGTLVTVSS
VL: DIQMTQSPSSLSASVGDRVTITCRASQSIYGALNWYQQKPGKAPKLLIYGASNLQSGVPSRFSGSGSGTDFTLTISSLQPEDFATYYCQSTYTAPWTFGGGTKVEIK
chain: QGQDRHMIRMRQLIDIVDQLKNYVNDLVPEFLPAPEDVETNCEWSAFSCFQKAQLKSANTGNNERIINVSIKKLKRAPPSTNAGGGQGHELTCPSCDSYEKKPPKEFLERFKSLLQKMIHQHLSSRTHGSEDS
notes: as for B1
B5: xhCD8.1-hIL21 v2.29 (other)
VH: QVQLVQSGAEVKKPGSSVKVSCKASGGTFSSYAISWVRQAPGQGLEWMGGIIPGYATANYAQKFQGRVTITADESTSTAYMELSSLRSEDTAVYYCARDAAGIRLFADWGQGTLVTVSS
VL: DIQMTQSPSSLSASVGDRVTITCRASQSIYGALNWYQQKPGKAPKLLIYGASNLQSGVPSRFSGSGSGTDFTLTISSLQPEDFATYYCQSTYTAPWTFGGGTKVEIK
chain: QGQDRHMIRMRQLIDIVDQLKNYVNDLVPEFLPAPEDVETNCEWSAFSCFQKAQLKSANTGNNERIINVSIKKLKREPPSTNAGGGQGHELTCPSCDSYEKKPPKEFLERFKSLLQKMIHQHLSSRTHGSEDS
notes: as for B1
B6: xhCD8.1-hIL21 v2.30 (other)
VH: QVQLVQSGAEVKKPGSSVKVSCKASGGTFSSYAISWVRQAPGQGLEWMGGIIPGYATANYAQKFQGRVTITADESTSTAYMELSSLRSEDTAVYYCARDAAGIRLFADWGQGTLVTVSS
VL: DIQMTQSPSSLSASVGDRVTITCRASQSIYGALNWYQQKPGKAPKLLIYGASNLQSGVPSRFSGSGSGTDFTLTISSLQPEDFATYYCQSTYTAPWTFGGGTKVEIK
chain: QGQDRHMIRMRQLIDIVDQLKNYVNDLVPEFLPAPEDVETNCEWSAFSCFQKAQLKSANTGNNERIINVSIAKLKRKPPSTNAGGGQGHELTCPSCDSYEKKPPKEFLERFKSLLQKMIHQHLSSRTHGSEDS
notes: as for B1
B7: xhCD8.1-hIL21 v2.31 (other)
VH: QVQLVQSGAEVKKPGSSVKVSCKASGGTFSSYAISWVRQAPGQGLEWMGGIIPGYATANYAQKFQGRVTITADESTSTAYMELSSLRSEDTAVYYCARDAAGIRLFADWGQGTLVTVSS
VL: DIQMTQSPSSLSASVGDRVTITCRASQSIYGALNWYQQKPGKAPKLLIYGASNLQSGVPSRFSGSGSGTDFTLTISSLQPEDFATYYCQSTYTAPWTFGGGTKVEIK
chain: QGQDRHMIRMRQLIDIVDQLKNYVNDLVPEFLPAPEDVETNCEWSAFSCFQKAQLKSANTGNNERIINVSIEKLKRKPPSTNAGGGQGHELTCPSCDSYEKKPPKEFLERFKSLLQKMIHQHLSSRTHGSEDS
notes: as for B1
B8: xhCD8.1-hIL21 v2.32 (other)
VH: QVQLVQSGAEVKKPGSSVKVSCKASGGTFSSYAISWVRQAPGQGLEWMGGIIPGYATANYAQKFQGRVTITADESTSTAYMELSSLRSEDTAVYYCARDAAGIRLFADWGQGTLVTVSS
VL: DIQMTQSPSSLSASVGDRVTITCRASQSIYGALNWYQQKPGKAPKLLIYGASNLQSGVPSRFSGSGSGTDFTLTISSLQPEDFATYYCQSTYTAPWTFGGGTKVEIK
chain: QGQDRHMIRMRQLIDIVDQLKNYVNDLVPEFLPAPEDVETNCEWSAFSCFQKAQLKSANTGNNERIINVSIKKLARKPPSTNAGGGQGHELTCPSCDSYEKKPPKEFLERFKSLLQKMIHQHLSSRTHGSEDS
notes: as for B1
B9: xhCD8.1-hIL21 v2.33 (other)
VH: QVQLVQSGAEVKKPGSSVKVSCKASGGTFSSYAISWVRQAPGQGLEWMGGIIPGYATANYAQKFQGRVTITADESTSTAYMELSSLRSEDTAVYYCARDAAGIRLFADWGQGTLVTVSS
VL: DIQMTQSPSSLSASVGDRVTITCRASQSIYGALNWYQQKPGKAPKLLIYGASNLQSGVPSRFSGSGSGTDFTLTISSLQPEDFATYYCQSTYTAPWTFGGGTKVEIK
chain: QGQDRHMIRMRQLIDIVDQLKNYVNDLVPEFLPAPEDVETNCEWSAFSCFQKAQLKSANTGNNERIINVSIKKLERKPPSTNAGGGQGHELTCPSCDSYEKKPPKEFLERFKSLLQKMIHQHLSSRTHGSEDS
notes: as for B1
B10: xhCD8.1-hIL21 v2.34 (other)
VH: QVQLVQSGAEVKKPGSSVKVSCKASGGTFSSYAISWVRQAPGQGLEWMGGIIPGYATANYAQKFQGRVTITADESTSTAYMELSSLRSEDTAVYYCARDAAGIRLFADWGQGTLVTVSS
VL: DIQMTQSPSSLSASVGDRVTITCRASQSIYGALNWYQQKPGKAPKLLIYGASNLQSGVPSRFSGSGSGTDFTLTISSLQPEDFATYYCQSTYTAPWTFGGGTKVEIK
chain: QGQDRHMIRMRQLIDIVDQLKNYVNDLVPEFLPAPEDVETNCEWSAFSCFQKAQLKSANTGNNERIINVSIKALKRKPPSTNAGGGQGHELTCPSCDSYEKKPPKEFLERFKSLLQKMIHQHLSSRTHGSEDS
notes: as for B1
B11: xhCD8.1-hIL21 v2.36 (other)
VH: QVQLVQSGAEVKKPGSSVKVSCKASGGTFSSYAISWVRQAPGQGLEWMGGIIPGYATANYAQKFQGRVTITADESTSTAYMELSSLRSEDTAVYYCARDAAGIRLFADWGQGTLVTVSS
VL: DIQMTQSPSSLSASVGDRVTITCRASQSIYGALNWYQQKPGKAPKLLIYGASNLQSGVPSRFSGSGSGTDFTLTISSLQPEDFATYYCQSTYTAPWTFGGGTKVEIK
chain: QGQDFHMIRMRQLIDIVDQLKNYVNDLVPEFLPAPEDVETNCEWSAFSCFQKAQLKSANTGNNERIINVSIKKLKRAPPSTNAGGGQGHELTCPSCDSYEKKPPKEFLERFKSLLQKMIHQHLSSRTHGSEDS
notes: as for B1
B12: xhCD8.1-hIL21 v2.37 (other)
VH: QVQLVQSGAEVKKPGSSVKVSCKASGGTFSSYAISWVRQAPGQGLEWMGGIIPGYATANYAQKFQGRVTITADESTSTAYMELSSLRSEDTAVYYCARDAAGIRLFADWGQGTLVTVSS
VL: DIQMTQSPSSLSASVGDRVTITCRASQSIYGALNWYQQKPGKAPKLLIYGASNLQSGVPSRFSGSGSGTDFTLTISSLQPEDFATYYCQSTYTAPWTFGGGTKVEIK
chain: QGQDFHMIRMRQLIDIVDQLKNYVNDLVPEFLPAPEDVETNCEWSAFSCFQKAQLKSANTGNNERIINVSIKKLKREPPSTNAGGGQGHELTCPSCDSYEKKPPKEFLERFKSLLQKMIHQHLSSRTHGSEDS
notes: as for B1
B13: xhCD8.1-hIL21 v2.38 (other)
VH: QVQLVQSGAEVKKPGSSVKVSCKASGGTFSSYAISWVRQAPGQGLEWMGGIIPGYATANYAQKFQGRVTITADESTSTAYMELSSLRSEDTAVYYCARDAAGIRLFADWGQGTLVTVSS
VL: DIQMTQSPSSLSASVGDRVTITCRASQSIYGALNWYQQKPGKAPKLLIYGASNLQSGVPSRFSGSGSGTDFTLTISSLQPEDFATYYCQSTYTAPWTFGGGTKVEIK
chain: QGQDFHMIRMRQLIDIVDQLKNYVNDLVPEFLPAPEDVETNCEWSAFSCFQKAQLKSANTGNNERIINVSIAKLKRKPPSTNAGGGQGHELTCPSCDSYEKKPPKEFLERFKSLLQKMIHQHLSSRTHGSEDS
notes: as for B1
B14: xhCD8.1-hIL21 v2.39 (other)
VH: QVQLVQSGAEVKKPGSSVKVSCKASGGTFSSYAISWVRQAPGQGLEWMGGIIPGYATANYAQKFQGRVTITADESTSTAYMELSSLRSEDTAVYYCARDAAGIRLFADWGQGTLVTVSS
VL: DIQMTQSPSSLSASVGDRVTITCRASQSIYGALNWYQQKPGKAPKLLIYGASNLQSGVPSRFSGSGSGTDFTLTISSLQPEDFATYYCQSTYTAPWTFGGGTKVEIK
chain: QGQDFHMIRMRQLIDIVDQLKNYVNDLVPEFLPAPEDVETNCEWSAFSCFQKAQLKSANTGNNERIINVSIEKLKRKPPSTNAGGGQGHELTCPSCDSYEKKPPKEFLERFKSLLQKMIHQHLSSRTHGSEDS
notes: as for B1
B15: xhCD8.1-hIL21 v2.40 (other)
VH: QVQLVQSGAEVKKPGSSVKVSCKASGGTFSSYAISWVRQAPGQGLEWMGGIIPGYATANYAQKFQGRVTITADESTSTAYMELSSLRSEDTAVYYCARDAAGIRLFADWGQGTLVTVSS
VL: DIQMTQSPSSLSASVGDRVTITCRASQSIYGALNWYQQKPGKAPKLLIYGASNLQSGVPSRFSGSGSGTDFTLTISSLQPEDFATYYCQSTYTAPWTFGGGTKVEIK
chain: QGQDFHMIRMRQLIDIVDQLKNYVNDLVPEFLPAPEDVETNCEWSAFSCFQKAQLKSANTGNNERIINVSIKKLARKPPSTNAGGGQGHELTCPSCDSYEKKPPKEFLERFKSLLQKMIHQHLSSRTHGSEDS
notes: as for B1
B16: xhCD8.1-hIL21 v2.41 (other)
VH: QVQLVQSGAEVKKPGSSVKVSCKASGGTFSSYAISWVRQAPGQGLEWMGGIIPGYATANYAQKFQGRVTITADESTSTAYMELSSLRSEDTAVYYCARDAAGIRLFADWGQGTLVTVSS
VL: DIQMTQSPSSLSASVGDRVTITCRASQSIYGALNWYQQKPGKAPKLLIYGASNLQSGVPSRFSGSGSGTDFTLTISSLQPEDFATYYCQSTYTAPWTFGGGTKVEIK
chain: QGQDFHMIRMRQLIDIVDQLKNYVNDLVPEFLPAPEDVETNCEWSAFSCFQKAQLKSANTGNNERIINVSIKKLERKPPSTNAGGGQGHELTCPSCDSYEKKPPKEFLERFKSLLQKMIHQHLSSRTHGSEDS
notes: as for B1
B17: xhCD8.1-hIL21 v2.42 (other)
VH: QVQLVQSGAEVKKPGSSVKVSCKASGGTFSSYAISWVRQAPGQGLEWMGGIIPGYATANYAQKFQGRVTITADESTSTAYMELSSLRSEDTAVYYCARDAAGIRLFADWGQGTLVTVSS
VL: DIQMTQSPSSLSASVGDRVTITCRASQSIYGALNWYQQKPGKAPKLLIYGASNLQSGVPSRFSGSGSGTDFTLTISSLQPEDFATYYCQSTYTAPWTFGGGTKVEIK
chain: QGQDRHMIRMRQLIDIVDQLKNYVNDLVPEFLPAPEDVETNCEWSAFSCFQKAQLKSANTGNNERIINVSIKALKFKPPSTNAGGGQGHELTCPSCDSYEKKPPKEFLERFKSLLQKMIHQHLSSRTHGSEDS
notes: as for B1
B18: xhCD8.1-hIL21 v2.43 (other)
VH: QVQLVQSGAEVKKPGSSVKVSCKASGGTFSSYAISWVRQAPGQGLEWMGGIIPGYATANYAQKFQGRVTITADESTSTAYMELSSLRSEDTAVYYCARDAAGIRLFADWGQGTLVTVSS
VL: DIQMTQSPSSLSASVGDRVTITCRASQSIYGALNWYQQKPGKAPKLLIYGASNLQSGVPSRFSGSGSGTDFTLTISSLQPEDFATYYCQSTYTAPWTFGGGTKVEIK
chain: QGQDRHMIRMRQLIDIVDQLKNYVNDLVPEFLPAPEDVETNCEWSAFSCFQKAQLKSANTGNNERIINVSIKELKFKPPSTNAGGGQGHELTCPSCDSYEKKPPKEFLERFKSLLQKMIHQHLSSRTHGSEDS
notes: as for B1
B19: xhCD8.1-hIL21 v2.45 (other)
VH: QVQLVQSGAEVKKPGSSVKVSCKASGGTFSSYAISWVRQAPGQGLEWMGGIIPGYATANYAQKFQGRVTITADESTSTAYMELSSLRSEDTAVYYCARDAAGIRLFADWGQGTLVTVSS
VL: DIQMTQSPSSLSASVGDRVTITCRASQSIYGALNWYQQKPGKAPKLLIYGASNLQSGVPSRFSGSGSGTDFTLTISSLQPEDFATYYCQSTYTAPWTFGGGTKVEIK
chain: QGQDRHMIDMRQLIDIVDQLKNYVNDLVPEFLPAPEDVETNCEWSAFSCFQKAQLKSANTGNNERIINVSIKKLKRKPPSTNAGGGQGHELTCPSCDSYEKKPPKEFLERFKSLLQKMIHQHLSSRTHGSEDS
notes: as for B1
B20: xhCD8.1-hIL21 v2.46 (other)
VH: QVQLVQSGAEVKKPGSSVKVSCKASGGTFSSYAISWVRQAPGQGLEWMGGIIPGYATANYAQKFQGRVTITADESTSTAYMELSSLRSEDTAVYYCARDAAGIRLFADWGQGTLVTVSS
VL: DIQMTQSPSSLSASVGDRVTITCRASQSIYGALNWYQQKPGKAPKLLIYGASNLQSGVPSRFSGSGSGTDFTLTISSLQPEDFATYYCQSTYTAPWTFGGGTKVEIK
chain: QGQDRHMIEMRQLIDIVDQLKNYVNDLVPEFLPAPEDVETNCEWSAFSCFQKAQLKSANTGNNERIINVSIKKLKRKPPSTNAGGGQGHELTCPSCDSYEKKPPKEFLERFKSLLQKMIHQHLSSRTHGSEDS
notes: as for B1
B21: xhCD8.1-hIL21 v2.58 (other)
VH: QVQLVQSGAEVKKPGSSVKVSCKASGGTFSSYAISWVRQAPGQGLEWMGGIIPGYATANYAQKFQGRVTITADESTSTAYMELSSLRSEDTAVYYCARDAAGIRLFADWGQGTLVTVSS
VL: DIQMTQSPSSLSASVGDRVTITCRASQSIYGALNWYQQKPGKAPKLLIYGASNLQSGVPSRFSGSGSGTDFTLTISSLQPEDFATYYCQSTYTAPWTFGGGTKVEIK
chain: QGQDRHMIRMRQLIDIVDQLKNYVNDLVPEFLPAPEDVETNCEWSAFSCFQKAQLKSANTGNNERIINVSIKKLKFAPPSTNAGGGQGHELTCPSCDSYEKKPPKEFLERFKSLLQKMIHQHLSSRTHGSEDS
notes: as for B1

What follows are binders tested against Recombinant human IL-21R, extracellular domain fused to 8x Histidine tag (generated in house) (human, UniProt Q9HBE5 20-232) (assay: SPR, 37 C).
Recombinant human IL-21R, extracellular domain fused to 8x Histidine tag (generated in house), sequence (Q9HBE5 other isoform, or with tags, fused parts or gaps limits assumed): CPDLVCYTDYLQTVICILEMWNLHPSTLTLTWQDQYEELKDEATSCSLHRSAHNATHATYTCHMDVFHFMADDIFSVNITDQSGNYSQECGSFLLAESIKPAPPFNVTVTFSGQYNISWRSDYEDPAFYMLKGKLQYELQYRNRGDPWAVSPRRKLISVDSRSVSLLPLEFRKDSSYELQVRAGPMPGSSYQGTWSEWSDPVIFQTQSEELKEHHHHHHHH
Procedure: Protein was not captured on flow cell 1 to serve as a reference surface. A serial dilution was generated for human IL-21R, in HBS-P+ buffer supplemented with 1 g/L BSA, starting at nominal concentrations between 20-5 µM, followed by six to seven 5-fold serial dilutions, and flowed over the surface-captured fusion protein for 2 minutes at 30 µL/min. Buffer was also flowed over the surface to serve as a blank subtraction. Dissociation was monitored for 5-10 minutes, and the anti-hIgG-Fc surface was regenerated with three 30 to 60-seconds injections of 75 mM phosphoric acid before recapturing fusion protein in each subsequent binding cycle. Binding data were double-referenced and analyzed by Biacore® Evaluation Software version 3.2 using steady-state affinity for very weak interactions, or when possible, a 1:1 Langmuir with mass transport model to determine kinetic rate constants (k_a, k_d) and K_D.
In the case of B1, the Kd is reported as 156 nM.
Work on B2 yielded a Kd of 420 nM.
B3: no binding (tested: highest concentration tested).
B4 was tested, and the Kd was 0.693 nM.
Work on B5 yielded a Kd of 2.8 nM.
B6 gave a Kd of 0.419 nM.
Work on B7 yielded a Kd of 3.4 nM.
With B8 the Kd was 0.236 nM.
In the case of B9, the Kd is reported as 1.3 nM.
B10 showed a Kd of 2 nM.
Binder B11 has a Kd of 125 nM.
In the case of B12, the Kd is reported as 601 nM.
For B13, the Kd was 66.9 nM.
In the case of B14, the Kd is reported as 614 nM.
With B15 the Kd was 54.7 nM.
B16 gave a Kd of 104 nM.
B17: no binding (tested: highest concentration tested).
B18: no binding (tested: highest concentration tested).
B19: no binding (tested: highest concentration tested).
B20: no binding (tested: highest concentration tested).
B21 showed a Kd of 420 nM.
